Test results as given in publication PMC6215091.
Where two headings read alike, the source gives them in different places.

Assays:
[1] = biological target: NaChBac (Bacillus halodurans)
[2] = biological target: NaChBac/F108A (Bacillus halodurans)
[3] = biological target: NaChBac F103A (Bacillus halodurans)
[4] = biological target: NaChBac Q107A (Bacillus halodurans)
[5] = biological target: NaChBac/G105A (Bacillus halodurans)
[6] = biological target: NaChBac V109A (Bacillus halodurans)
[7] = biological target: NaChBac (Bacillus halodurans); remark: listed apart in the source
[8] = biological target: NaV1.6 (UniProt Q9WTU3)
[9] = biological target: NaV1.2 (UniProt P04775)
[10] = biological target: NaV1.5 (UniProt Q14524)
Sequence of UniProt Q14524 (Q14524 whole entry): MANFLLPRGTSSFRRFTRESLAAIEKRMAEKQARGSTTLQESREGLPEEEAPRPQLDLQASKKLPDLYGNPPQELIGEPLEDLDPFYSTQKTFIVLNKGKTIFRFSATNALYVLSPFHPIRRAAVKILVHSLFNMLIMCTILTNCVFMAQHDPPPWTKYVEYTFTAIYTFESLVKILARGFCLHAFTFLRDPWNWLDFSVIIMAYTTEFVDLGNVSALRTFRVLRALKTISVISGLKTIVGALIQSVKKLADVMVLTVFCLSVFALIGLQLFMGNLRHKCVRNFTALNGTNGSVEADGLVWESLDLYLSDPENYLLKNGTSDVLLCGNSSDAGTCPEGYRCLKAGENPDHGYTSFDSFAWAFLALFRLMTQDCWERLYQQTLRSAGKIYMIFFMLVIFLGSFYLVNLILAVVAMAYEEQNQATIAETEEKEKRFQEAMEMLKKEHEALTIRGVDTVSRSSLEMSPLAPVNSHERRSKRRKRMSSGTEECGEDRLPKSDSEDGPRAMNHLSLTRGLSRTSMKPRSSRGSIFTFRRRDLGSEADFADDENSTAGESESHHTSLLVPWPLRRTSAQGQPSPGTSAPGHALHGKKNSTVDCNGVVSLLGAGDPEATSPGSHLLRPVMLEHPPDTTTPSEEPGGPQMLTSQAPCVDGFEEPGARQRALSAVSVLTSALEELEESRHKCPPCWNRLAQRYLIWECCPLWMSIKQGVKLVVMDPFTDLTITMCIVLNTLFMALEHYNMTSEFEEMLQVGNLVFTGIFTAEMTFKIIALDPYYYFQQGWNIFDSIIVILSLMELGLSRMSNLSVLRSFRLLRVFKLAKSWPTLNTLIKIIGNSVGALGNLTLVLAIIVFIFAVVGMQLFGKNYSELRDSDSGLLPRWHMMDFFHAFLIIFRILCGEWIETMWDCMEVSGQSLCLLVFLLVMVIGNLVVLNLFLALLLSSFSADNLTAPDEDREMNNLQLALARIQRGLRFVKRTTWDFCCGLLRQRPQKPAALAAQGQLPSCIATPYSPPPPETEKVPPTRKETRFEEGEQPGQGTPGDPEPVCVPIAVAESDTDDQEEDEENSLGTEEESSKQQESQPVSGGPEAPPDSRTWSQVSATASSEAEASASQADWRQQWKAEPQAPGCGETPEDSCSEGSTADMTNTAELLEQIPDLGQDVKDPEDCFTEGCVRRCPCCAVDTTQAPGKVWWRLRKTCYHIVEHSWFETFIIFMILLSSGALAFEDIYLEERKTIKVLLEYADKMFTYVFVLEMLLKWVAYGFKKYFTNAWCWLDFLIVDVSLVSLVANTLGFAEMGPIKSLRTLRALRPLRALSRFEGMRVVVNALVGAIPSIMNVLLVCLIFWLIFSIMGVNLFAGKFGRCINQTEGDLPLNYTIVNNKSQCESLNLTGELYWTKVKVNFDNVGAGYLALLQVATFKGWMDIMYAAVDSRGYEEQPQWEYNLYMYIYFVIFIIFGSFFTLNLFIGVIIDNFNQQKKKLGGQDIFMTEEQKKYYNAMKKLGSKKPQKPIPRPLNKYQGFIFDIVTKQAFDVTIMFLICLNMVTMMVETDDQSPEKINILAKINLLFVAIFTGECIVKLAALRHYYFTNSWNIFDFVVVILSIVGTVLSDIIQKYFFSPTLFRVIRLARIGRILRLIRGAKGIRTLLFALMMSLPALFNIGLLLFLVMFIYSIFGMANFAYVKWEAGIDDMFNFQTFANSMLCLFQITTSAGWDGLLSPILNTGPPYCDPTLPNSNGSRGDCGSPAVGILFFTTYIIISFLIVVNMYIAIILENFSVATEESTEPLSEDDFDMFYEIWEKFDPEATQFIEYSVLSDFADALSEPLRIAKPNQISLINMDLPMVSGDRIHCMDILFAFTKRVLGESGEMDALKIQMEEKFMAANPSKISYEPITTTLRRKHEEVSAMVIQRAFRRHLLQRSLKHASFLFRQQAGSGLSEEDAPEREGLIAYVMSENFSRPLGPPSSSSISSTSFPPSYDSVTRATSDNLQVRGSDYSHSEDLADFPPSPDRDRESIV

[11] = biological target: NaV1.7 (UniProt Q15858)
Sequence of UniProt Q15858 (Q15858 whole entry): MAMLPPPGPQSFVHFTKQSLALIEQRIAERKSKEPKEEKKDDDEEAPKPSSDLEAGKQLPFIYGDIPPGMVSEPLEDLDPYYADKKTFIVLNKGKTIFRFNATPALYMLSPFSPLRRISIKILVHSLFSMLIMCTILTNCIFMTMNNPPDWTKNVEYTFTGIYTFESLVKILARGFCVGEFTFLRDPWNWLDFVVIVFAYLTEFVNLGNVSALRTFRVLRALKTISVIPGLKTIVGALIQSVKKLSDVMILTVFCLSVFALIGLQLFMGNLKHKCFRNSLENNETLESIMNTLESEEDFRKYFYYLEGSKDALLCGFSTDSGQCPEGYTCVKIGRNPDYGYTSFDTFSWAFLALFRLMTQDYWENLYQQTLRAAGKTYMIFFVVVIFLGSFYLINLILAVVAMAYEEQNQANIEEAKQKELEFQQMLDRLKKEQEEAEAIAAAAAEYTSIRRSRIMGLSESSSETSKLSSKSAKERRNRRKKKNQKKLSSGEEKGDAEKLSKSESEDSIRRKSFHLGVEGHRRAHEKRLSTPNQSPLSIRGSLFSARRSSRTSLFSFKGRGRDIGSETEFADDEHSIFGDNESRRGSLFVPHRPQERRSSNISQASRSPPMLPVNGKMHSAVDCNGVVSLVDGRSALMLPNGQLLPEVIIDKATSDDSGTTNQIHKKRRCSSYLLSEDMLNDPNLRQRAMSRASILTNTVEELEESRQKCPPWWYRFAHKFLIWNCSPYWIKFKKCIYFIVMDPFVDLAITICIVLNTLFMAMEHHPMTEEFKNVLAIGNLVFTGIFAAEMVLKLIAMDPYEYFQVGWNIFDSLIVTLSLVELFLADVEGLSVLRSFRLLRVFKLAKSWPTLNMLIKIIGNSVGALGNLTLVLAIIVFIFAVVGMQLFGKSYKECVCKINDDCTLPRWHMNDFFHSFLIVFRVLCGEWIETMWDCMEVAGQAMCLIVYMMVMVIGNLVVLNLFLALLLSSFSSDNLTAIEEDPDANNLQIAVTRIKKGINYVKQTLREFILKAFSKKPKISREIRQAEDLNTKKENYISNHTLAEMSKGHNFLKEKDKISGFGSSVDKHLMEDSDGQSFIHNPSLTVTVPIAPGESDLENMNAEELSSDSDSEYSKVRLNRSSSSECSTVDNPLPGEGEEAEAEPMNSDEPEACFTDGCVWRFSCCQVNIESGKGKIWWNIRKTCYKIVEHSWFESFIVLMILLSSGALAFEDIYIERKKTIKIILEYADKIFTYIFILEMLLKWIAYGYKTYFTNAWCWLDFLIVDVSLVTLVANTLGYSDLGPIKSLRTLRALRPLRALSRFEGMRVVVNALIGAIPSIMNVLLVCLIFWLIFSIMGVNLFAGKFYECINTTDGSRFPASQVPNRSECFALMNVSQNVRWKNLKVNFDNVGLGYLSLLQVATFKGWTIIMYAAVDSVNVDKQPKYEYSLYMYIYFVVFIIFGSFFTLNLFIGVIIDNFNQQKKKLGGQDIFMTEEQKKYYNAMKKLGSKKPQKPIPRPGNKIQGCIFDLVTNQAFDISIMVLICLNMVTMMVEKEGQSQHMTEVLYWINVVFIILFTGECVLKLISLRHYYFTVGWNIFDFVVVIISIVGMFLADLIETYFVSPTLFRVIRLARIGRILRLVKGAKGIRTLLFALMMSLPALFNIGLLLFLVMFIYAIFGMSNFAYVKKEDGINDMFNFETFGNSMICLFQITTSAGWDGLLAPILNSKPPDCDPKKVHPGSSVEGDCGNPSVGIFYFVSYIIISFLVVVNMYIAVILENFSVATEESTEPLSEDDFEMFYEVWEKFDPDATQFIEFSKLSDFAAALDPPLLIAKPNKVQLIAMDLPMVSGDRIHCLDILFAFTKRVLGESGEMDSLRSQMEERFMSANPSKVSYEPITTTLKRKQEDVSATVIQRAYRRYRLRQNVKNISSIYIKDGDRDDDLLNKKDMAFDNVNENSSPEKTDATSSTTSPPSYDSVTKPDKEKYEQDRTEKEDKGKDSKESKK

[12] = biological target: NaV1.8/1.7L5 channel
[13] = biological target: NaV1.3 (UniProt P08104)
[14] = biological target: NaV1.4 (UniProt P15390)

Substance | IC50 of inhibition of the current, whole-cell patch clamp, dose–response curve [1] | IC50 of inhibition of the current, whole-cell patch clamp, dose–response curve [2] | IC50 of inhibition of the current, whole-cell patch clamp, dose–response curve [3] | IC50 of inhibition of the current, whole-cell patch clamp, dose–response curve [4] | IC50 of inhibition of the current, whole-cell patch clamp, dose–response curve [5] | IC50 of inhibition of the current, whole-cell patch clamp, dose–response curve [6] | IC50 of inhibition of the current, whole-cell patch clamp, dose–response curve [7] | IC50 of inhibition of the peak current, whole-cell patch clamp, dose–response curve [8] | IC50 of inhibition of the peak current, whole-cell patch clamp, dose–response curve [9] | IC50 of inhibition of the peak current, whole-cell patch clamp, dose–response curve [10] | IC50 of inhibition of the peak current, whole-cell patch clamp, dose–response curve [11] | IC50 of inhibition of the peak current, whole-cell patch clamp, dose–response curve [12] | IC50 of inhibition of the peak current, whole-cell patch clamp, dose–response curve [13] | IC50 of inhibition of the peak current, whole-cell patch clamp, dose–response curve [14]
JZTx-27 (peptide) | 46.7 nM | 117 nM |  |  |  |  |  |  |  |  |  |  |  | 
JZTx-14 (from UniProt B1P1C0 30-62) (peptide) |  | 3470 nM | 833 nM | 810 nM | 653 nM | 1370 nM | 320 nM | 159 nM | 194 nM | 478 nM | 189 nM | 824 nM | 426 nM | 290 nM
